# Data published in publication PMC10576003 (Nature Communications, 2023).
# B1: nanobody H2 (Nb_H2) (VHH)
# VHH: QGQLVESGGGLVQPGGSLRLSCADAGSIFNKFPMAWYRQAPGKERELVARISSGGSTNYADFVKGRFTISRDNAKSTLYLQMNSLKPEDTAMYYCARIINSASNIAYWGQGTRVTVSA
# notes: alpaca-derived nanobody selected by phage display against MHAS2168; they are in PDB 8PNL chain B (and chain D); MBP and His-tag removed with 3C protease; not shown: His10, N-terminal, cleaved
# B2: MHAS2168 (natural protein, Mycobacterium hassiacum)
# chain: MSAFPQTPNRLIRPRRTSRGIAISAGGLAVLLGALDTYVVVSIVTDIMRDVGIAVNQIQRVTPIITGYLLGYIAAMPLLGRASDRFGRKLLIQISLAGFALGSVITALATNLDVLVAGRVIQGAASGALLPVTLALAADLWATHKRAAVLGGVGAAQELGAVLGPIYGIFVVWLFHHWQAVFWVNVPLALIAMVLIHISLPPRVRTEEPQRVDVTGGLLLALALGLATIGLYNAEPDGKQVLPEYGPPLIIGAVIAAVAFLVWERFARTRLLDPAGVRFRPFLIALLVSLVTGGALMVTLVNVELFGQGVLGLDQDEAVFLLARFLIALPVGALLGGWIATRVGDRAVTAVGLLIAAGGFYLIAQWPADVLESRHDLGFVSLPTLDTDLAIAGFGLGLVIAPLTSAALRVVPAAQHGIASAAVVVARMIGMLIGIAALSAWGLYRFNQYLKEQLAALPPAPADFPGGQMAGQMMRLRTATVQAYVLQYGEIFAITAGLCVFGAVLGLFIAGRREHAEESADAVDGVSNARDRAPSA
# notes: C-terminal fusion: 3C protease cleavage site, GFP, His10; residues of the 3C site may be left after cleavage; also called Rv1410 homologue from Mycobacterium hassiacum; MHAS2168^OUT; not shown: GFP, C-terminal, cleaved; His10, C-terminal, cleaved
# Assays:
# [1] = target: B2; experiment: crystal structure; […]) at 20 °C; […]; details: both partners purified
# [2] = target: T1, megabody H2 (Mb_H2) ( | alpaca); experiment: cryo-EM structure; details: both partners purified
# T1 construct: the first thirteen N-terminal residues that form the β-strand A of a nanobody, encoded by the vector pBXMBQ; not shown: His10, C-terminal, cleaved
Binder,binding result [1],binding result [2]
B1,binds,–
B2,–,binds
